In the supplement of paper PMC5998384:

How the values were obtained:
HeLa Kyoto [1] = experiment: thermal stability score vs G1/S (z-score of summed log2 fold changes over temperatures); higher = more thermally stable than in G1/S
HeLa Kyoto [2] = experiment: solubility change mitosis vs G1/S (difference of NP-40 vs SDS log2 ratios) (log2 ratio difference); higher = more soluble in mitosis
HeLa Kyoto [3] = experiment: melting temperature (median over replicates), in situ; higher = more thermally stable
HeLa Kyoto [4] = experiment: solubility in G1/S (NP-40 vs SDS abundance) (log2 ratio); higher = more soluble; settings: cell cycle stage: G1/S
[5] = cell cycle stage: early G1 (4.5 h after nocodazole release)
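Throughout, for melting temperature (median over replicates), in situ: HeLa Kyoto cells synchronized by double thymidine or nocodazole block, proteins quantified by TMT10plex mass spectrometry, three independent biological replicates.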
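Throughout, for solubility change mitosis vs G1/S (difference of NP-40 vs SDS log2 ratios): synchronized HeLa Kyoto cells (double thymidine block for G1/S, nocodazole release for mitosis), protein amounts in NP-40 versus SDS lysates quantified by mass spectrometry, three biological replicates.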
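Throughout, for solubility in G1/S (NP-40 vs SDS abundance): HeLa Kyoto cells arrested at G1/S by double thymidine block, proteins quantified by TMT10plex mass spectrometry in mild NP-40 versus SDS extracts, three biological replicates.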
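Throughout, for thermal stability score vs G1/S (z-score of summed log2 fold changes over temperatures): synchronized HeLa Kyoto cells, proteins quantified by TMT10plex mass spectrometry, three biological replicates, mitosis taken 0.5 h after nocodazole release, G1/S directly after double thymidine block.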

| Sequence | thermal stability score (HeLa Kyoto [1]; [5]) | thermal stability score (HeLa Kyoto [1]; cell cycle stage: mitosis) | solubility change mitosis (log2) (HeLa Kyoto [2]) | melting temperature (HeLa Kyoto [3]; cell cycle stage: G1/S) [°C] | melting temperature (HeLa Kyoto [3]; cell cycle stage: mitosis) [°C] | solubility in G1/S (log2) (HeLa Kyoto [4]) |
| --- | --- | --- | --- | --- | --- | --- |
| MFEEKASSPSGKMGGEEKPIGAGEEKQKEGGKKKNKEGSGDGGRAELNPWPEYIYTRLEMYNILKAEHDSILAEKAEKDSKPIKVTLPDGKQVDAESWKTTPYQIACGISQGLADNTVIAKVNNVVWDLDRPLEEDCTLELLKFEDEEAQAVYWHSSAHIMGEAMERVYGGCLCYGPPIENGFYYDMYLEEGGVSSNDFSSLEALCKKIIKEKQAFERLEVKKETLLAMFKYNKFKCRILNEKVNTPTTTVYRCGPLIDLCRGPHVRHTGKIKALKIHKNSSTYWEGKADMETLQRIYGISFPDPKMLKEWEKFQEEAKNRDHRKIGRDQELYFFHELSPGSCFFLPKGAYIYNALIEFIRSEYRKRGFQEVVTPNIFNSRLWMTSGHWQHYSENMFSFEVEKELFALKPMNCPGHCLMFDHRPRSWRELPLRLADFGVLHRNELSGALTGLTRVRRFQQDDAHIFCAMEQIEDEIKGCLDFLRTVYSVFGFSFKLNLSTRPEKFLGDIEVWDQAEKQLENSLNEFGEKWELNSGDGAFYGPKIDIQIKDAIGRYHQCATIQLDFQLPIRFNLTYVSHDGDDKKRPVIVHRAILGSVERMIAILTENYGGKWPFWLSPRQVMVVPVGPTCDEYAQKVRQQFHDAKFMADIDLDPGCTLNKKIRNAQLAQYNFILVVGEKEKISGTVNIRTRDNKVHGERTISETIERLQQLKEFRSKQAEEEF [TARS] | 0.00611 | -0.985 | -0.144 | 51.9 | 51.6 | -0.0551 |
| MFGKRKKRVEISAPSNFEHRVHTGFDQHEQKFTGLPRQWQSLIEESARRPKPLVDPACITSIQPGAPKTIVRGSKGAKDGALTLLLDEFENMSVTRSNSLRRDSPPPPARARQENGMPEEPATTARGGPGKAGSRGRFAGHSEAGGGSGDRRRAGPEKRPKSSREGSGGPQESSRDKRPLSGPDVGTPQPAGLASGAKLAAGRPFNTYPRADTDHPSRGAQGEPHDVAPNGPSAGGLAIPQSSSSSSRPPTRARGAPSPGVLGPHASEPQLAPPACTPAAPAVPGPPGPRSPQREPQRVSHEQFRAALQLVVDPGDPRSYLDNFIKIGEGSTGIVCIATVRSSGKLVAVKKMDLRKQQRRELLFNEVVIMRDYQHENVVEMYNSYLVGDELWVVMEFLEGGALTDIVTHTRMNEEQIAAVCLAVLQALSVLHAQGVIHRDIKSDSILLTHDGRVKLSDFGFCAQVSKEVPRRKSLVGTPYWMAPELISRLPYGPEVDIWSLGIMVIEMVDGEPPYFNEPPLKAMKMIRDNLPPRLKNLHKVSPSLKGFLDRLLVRDPAQRATAAELLKHPFLAKAGPPASIVPLMRQNRTR [PAK4] | 0.186 | 0.111 | -0.000436 | 51.3 | 50.5 | 0.0713 |
| MFKKFDEKENVSNCIQLKTSVIKGIKNQLIEQFPGIEPWLNQIMPKKDPVKIVRCHEHIEILTVNGELLFFRQREGPFYPTLRLLHKYPFILPHQQVDKGAIKFVLSGANIMCPGLTSPGAKLYPAAVDTIVAIMAEGKQHALCVGVMKMSAEDIEKVNKGIGIENIHYLNDGLWHMKTYK [MCTS1] | -1.29 | -1.6 | -0.0597 | 54.8 | 54.5 | 0.267 |
| MFLVGLTGGIASGKSSVIQVFQQLGCAVIDVDVMARHVVQPGYPAHRRIVEVFGTEVLLENGDINRKVLGDLIFNQPDRRQLLNAITHPEIRKEMMKETFKYFLRGYRYVILDIPLLFETKKLLKYMKHTVVVYCDRDTQLARLMRRNSLNRKDAEARINAQLPLTDKARMARHVLDNSGEWSVTKRQVILLHTELERSLEYLPLRFGVLTGLAAIASLLYLLTHYLLPYA [DCAKD] | -0.154 | 0.0944 | -0.182 | 51.7 | 50.9 | -0.0828 |
| MFRAAAPGQLRRAASLLRFQSTLVIAEHANDSLAPITLNTITAATRLGGEVSCLVAGTKCDKVAQDLCKVAGIAKVLVAQHDVYKGLLPEELTPLILATQKQFNYTHICAGASAFGKNLLPRVAAKLEVAPISDIIAIKSPDTFVRTIYAGNALCTVKCDEKVKVFSVRGTSFDAAATSGGSASSEKASSTSPVEISEWLDQKLTKSDRPELTGAKVVVSGGRGLKSGENFKLLYDLADQLHAAVGASRAAVDAGFVPNDMQVGQTGKIVAPELYIAVGISGAIQHLAGMKDSKTIVAINKDPEAPIFQVADYGIVADLFKVVPEMTEILKKK [ETFA] | -3.45 | -1.76 | -0.02 | 54.1 | 53.6 | 0.455 |
